Target: T1, Myc-tagged PDC E1, P08559
T1 chain: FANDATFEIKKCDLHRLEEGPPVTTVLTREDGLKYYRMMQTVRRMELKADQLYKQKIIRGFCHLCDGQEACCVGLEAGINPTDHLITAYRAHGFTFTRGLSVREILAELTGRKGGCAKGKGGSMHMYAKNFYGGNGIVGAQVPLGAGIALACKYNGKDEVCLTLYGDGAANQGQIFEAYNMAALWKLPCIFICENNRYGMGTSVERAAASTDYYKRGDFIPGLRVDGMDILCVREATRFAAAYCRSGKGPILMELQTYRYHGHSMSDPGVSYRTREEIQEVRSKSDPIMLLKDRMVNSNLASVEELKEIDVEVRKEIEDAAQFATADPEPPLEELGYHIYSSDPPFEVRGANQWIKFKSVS
Test: co-immunoprecipitation (anti-Myc IP, western blot for Flag-STAT3), band intensity printed under lanes
Conditions: chain shown with the change; 293T cells, transient transfection; printed intensities relative to EV lane = 1; parent: 9.5

response: 2.4
B1: Flag-STAT3 WT, P40763 K685R; K707R; K709R (protein)
chain: MAQWNQLQQLDTRYLEQLHQLYSDSFPMELRQFLAPWIESQDWAYAASKESHATLVFHNLLGEIDQQYSRFLQESNVLYQHNLRRIKQFLQSRYLEKPMEIARIVARCLWEESRLLQTAATAAQQGGQANHPTAAVVTEKQQMLEQHLQDVRKRVQDLEQKMKVVENLQDDFDFNYKTLKSQGDMQDLNGNNQSVTRQKMQQLEQMLTALDQMRRSIVSELAGLLSAMEYVQKTLTDEELADWKRRQQIACIGGPPNICLDRLENWITSLAESQLQTRQQIKKLEELQQKVSYKGDPIVQHRPMLEERIVELFRNLMKSAFVVERQPCMPMHPDRPLVIKTGVQFTTKVRLLVKFPELNYQLKIKVCIDKDSGDVAALRGSRKFNILGTNTKVMNMEESNNGSLSAEFKHLTLREQRCGNGGRANCDASLIVTEELHLITFETEVYHQGLKIDLETHSLPVVVISNICQMPNAWASILWYNMLTNNPKNVNFFTKPPIGTWDQVAEVLSWQFSSTTKRGLSIEQLTTLAEKLLGPGVNYSGCQITWAKFCKENMAGKGFSFWVWLDNIIDLVKKYILALWNEGYIMGFISKERERAILSTKPPGTFLLRFSESSKEGGVTFTWVEKDISGKTQIQSVEPYTKQQLNNMSFAEIIMGYKIMDATNILVSPLVYLYPDIPKEEAFGRYCRPESQEHPEADPGSAAPYLRTRFICVTPTTCSNTIDLPMSPRTLDSLMQFGNNGEGAEPSAGGQFESLTFDMELTSECATSPM

Source: PMC5177931
